Experimental data published in the supplement of paper PMC10126150.
± gives the standard deviation of the averaged measurements.

tested on: ATP; assay: switch fluorescence ratio, 500 uM ATP over buffer (Cy3 cluster intensity, sum of 5 cycles each) (fold (ratio)); higher = stronger signal-on switching upon ATP binding; sequences stand for … in TCGTCGGCAGCGTCAGATGTGTATAAGAGACAGTTTTTTTTTTTTTTTTTTTTTTTTT…TC; conditions: aptamer strand: ATP DNA aptamer (quencher-CACCTGGGGGAGTATTGCGGAGGAAGG + anchor), 100 nM annealed; ATP concentration: 500 uM
Procedure, shortened: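 Cy3-labelled switching-strand clusters on a modified Illumina MiSeq flow-cell were annealed to 100 nM quencher-labelled ATP aptamer, imaged in selection buffer, then imaged after 15 min with 500 uM ATP at 22 °C. Five buffer/ATP cycles ran, with NaOH stripping and re-annealing between them. The fluorescence ratio is summed target-cycle over summed buffer-cycle Cy3 intensity per cluster, averaged per switch-domain sequence. Clusters outside 100-1000 RFU were excluded.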
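Also: ATP exposure 15 min at 22 °C before imaging.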

CTCTAAGT and CTCTAGCTTT are within error of each other in switch fluorescence ratio: 1.01 ± 0.017 for the first, 1.09 ± 0.075 for the second.

Compared with CTCTATTGTG, CTCTCAAGGT is higher in switch fluorescence ratio: 0.964 ± 0.027 for the first, 1.05 ± 0.018 for the second.

First: CTCTGAAATC
Second: CTCTGAGGGC
The switch fluorescence ratio of the first is higher: 2.997 ± 0.01 for the first, 1.07 ± 0.057 for the second.

Going from CTCTGCGTCA to CTCTGTATGT, the switch fluorescence ratio falls from 1.32 ± 0.025 to 1.035 ± 0.0081.

Compared with CTCTGTGGAC, CTCTGTTACA is lower in switch fluorescence ratio: 2.11 ± 0.27 for the first, 1.04 ± 0.038 for the second.

CTCTTGTGTT and CTCTTTCTAC are within error of each other in switch fluorescence ratio: 1.02 ± 0.048 for the first, 2.05 ± 1.3 for the second.

First: CTCTTTGGGG
Second: CTGAAACAGC
The switch fluorescence ratio of the first is lower: 0.976 ± 0.013 for the first, 1.06 ± 0.043 for the second.

CTGAAAGGGT and CTGAAGGATT are the same in switch fluorescence ratio: 1.01 ± 0.011 for the first, 1.01 ± 0.011 for the second.

CTGAAGGGGG and CTGAAGTCTG are within error of each other in switch fluorescence ratio: 0.967 ± 0.058 for the first, 1.019 ± 0.0084 for the second.

First: CTGAATCCTA
Second: CTGACACCCG
The switch fluorescence ratio of the first is lower: 1.01 ± 0.017 for the first, 1.07 ± 0.039 for the second.

CTGACCGGTC and CTGAGAATGG are the same in switch fluorescence ratio: 1.017 ± 0.0087 for the first, 1.02 ± 0.011 for the second.

CTGAGAGAAT and CTGAGATCTC are within error of each other in switch fluorescence ratio: 1.27 ± 0.46 for the first, 1.02 ± 0.011 for the second.

CTGAGGCTGA and CTGAGGGAAA are within error of each other in switch fluorescence ratio: 1.12 ± 0.11 for the first, 0.988 ± 0.029 for the second.

CTGAGGGAGC and CTGATAGTTG are within error of each other in switch fluorescence ratio: 1.09 ± 0.061 for the first, 1.04 ± 0.0013 for the second.

Going from CTGATGGGGT to CTGATGTGGC, the switch fluorescence ratio rises from 1 ± 0.013 to 1.06 ± 0.011.

First: CTGATGTTTT
Second: CTGATTACGC
The switch fluorescence ratio of the first is lower: 0.9747 ± 0.0063 for the first, 1.37 ± 0.016 for the second.

CTGATTATGT and CTGATTTTAG are the same in switch fluorescence ratio: 1.02 ± 0.015 for the first, 1.02 ± 0.071 for the second.

First: CTGCAAGGGA
Second: CTGCAAGGGT
The switch fluorescence ratio of the first is lower: 1.06 ± 0.051 for the first, 1.214 ± 0.011 for the second.

Going from CTGCCAGGTT to CTGCCCTCGC, the switch fluorescence ratio falls from 1.146 ± 0.0052 to 1.094 ± 0.0089.

First: CTGCTAGACC
Second: CTGCTCGTAA
The switch fluorescence ratio of the first is lower: 1.21 ± 0.036 for the first, 1.99 ± 0.18 for the second.

CTGCTCTGGG and CTGCTGCAGG are within error of each other in switch fluorescence ratio: 1.02 ± 0.017 for the first, 1.03 ± 0.044 for the second.

Compared with CTGGAAATTT, CTGGAATCCG is higher in switch fluorescence ratio: 1 ± 0.027 for the first, 1.08 ± 0.015 for the second.

CTGGAATTTT and CTGGACAGTA are within error of each other in switch fluorescence ratio: 0.9949 ± 0.0028 for the first, 1.01 ± 0.027 for the second.

CTGGACATGT and CTGGATGACA are within error of each other in switch fluorescence ratio: 0.97556 ± 7.2e-05 for the first, 0.986 ± 0.092 for the second.

CTGGCAGAAA and CTGGCCAGTT are within error of each other in switch fluorescence ratio: 1.02 ± 0.043 for the first, 1 ± 0.013 for the second.

CTGGCGAGGG and CTGGCGAGTA are the same in switch fluorescence ratio: 1.01 ± 0.026 for the first, 1.01 ± 0.016 for the second.

First: CTGGCTGGTG
Second: CTGGCTGTCT
The switch fluorescence ratio of the first is higher: 1.1 ± 0.026 for the first, 1.02 ± 0.036 for the second.

First: CTGGCTTGAC
Second: CTGGGACAAA
The switch fluorescence ratio of the first is lower: 0.983 ± 0.0052 for the first, 1.001 ± 0.0016 for the second.

CTGGGATAGG and CTGGGATATA are the same in switch fluorescence ratio: 1 ± 0.02 for the first, 1 ± 0.04 for the second.

CTGGGATTTG and CTGGGGGAGT are within error of each other in switch fluorescence ratio: 0.997 ± 0.049 for the first, 1 ± 0.012 for the second.

CTGGGGGATA and CTGGGGGGTA are within error of each other in switch fluorescence ratio: 1.02 ± 0.036 for the first, 0.997 ± 0.028 for the second.

CTGGGGTCGG and CTGGGGTGGA are within error of each other in switch fluorescence ratio: 1 ± 0.052 for the first, 1.01 ± 0.036 for the second.

CTGGGGTGTA and CTGGGTAAGT are within error of each other in switch fluorescence ratio: 1.03 ± 0.059 for the first, 1.017 ± 0.0074 for the second.

CTGGGTATGT and CTGGGTATTT are within error of each other in switch fluorescence ratio: 0.959 ± 0.027 for the first, 0.999 ± 0.04 for the second.

CTGGGTGCCG and CTGGGTTATT are within error of each other in switch fluorescence ratio: 0.968 ± 0.084 for the first, 0.977 ± 0.042 for the second.

Compared with CTGGGTTTAT, CTGGTAATAT is higher in switch fluorescence ratio: 1 ± 0.042 for the first, 1.15 ± 0.041 for the second.

Going from CTGGTACGAC to CTGGTACGGA, the switch fluorescence ratio falls from 1.13 ± 0.016 to 1.0245 ± 0.00032.

CTGGTCAATG and CTGGTCGCTG are the same in switch fluorescence ratio: 1.01 ± 0.063 for the first, 1.01 ± 0.046 for the second.

CTGGTCGGGT and CTGGTCGTGC are within error of each other in switch fluorescence ratio: 1 ± 0.006 for the first, 0.999 ± 0.013 for the second.

CTGGTGGATT and CTGGTGGCCG are within error of each other in switch fluorescence ratio: 0.996 ± 0.024 for the first, 1 ± 0.028 for the second.

CTGGTTAACT and CTGGTTAGGT are within error of each other in switch fluorescence ratio: 1.024 ± 0.0048 for the first, 1.01 ± 0.02 for the second.

First: CTGGTTGCGG
Second: CTGGTTTTGT
The switch fluorescence ratio of the first is lower: 0.979 ± 0.021 for the first, 1.04 ± 0.014 for the second.

CTGTAAGGTG and CTGTAAGTCT are within error of each other in switch fluorescence ratio: 1.83 ± 1 for the first, 0.989 ± 0.011 for the second.

CTGTAGAAGA and CTGTAGACGG are the same in switch fluorescence ratio: 1.05 ± 0.032 for the first, 1.05 ± 0.014 for the second.

CTGTATAGGT and CTGTATCAAG are within error of each other in switch fluorescence ratio: 0.965 ± 0.025 for the first, 0.999 ± 0.013 for the second.

CTGTATCTTT and CTGTCAGATT are within error of each other in switch fluorescence ratio: 1.02 ± 0.036 for the first, 0.974 ± 0.025 for the second.

CTGTCATGGG and CTGTCCAGTT are within error of each other in switch fluorescence ratio: 0.9952 ± 0.0063 for the first, 1.02 ± 0.048 for the second.

CTGTCGGGCG and CTGTCGGGGT are within error of each other in switch fluorescence ratio: 1.02 ± 0.035 for the first, 0.982 ± 0.037 for the second.

CTGTGAGTTT and CTGTGCCAAG are within error of each other in switch fluorescence ratio: 1.007 ± 0.0094 for the first, 1.0036 ± 0.00061 for the second.

CTGTGCTAGG and CTGTGGCCCG are within error of each other in switch fluorescence ratio: 1.01 ± 0.011 for the first, 0.98 ± 0.027 for the second.

CTGTGGGGGT and CTGTGGTTTA are within error of each other in switch fluorescence ratio: 1.04 ± 0.012 for the first, 1.03 ± 0.021 for the second.

CTGTGTGAAG and CTGTGTGTTT are within error of each other in switch fluorescence ratio: 1 ± 0.038 for the first, 0.9781 ± 0.0072 for the second.

CTGTTACTGT and CTGTTAGGCG are within error of each other in switch fluorescence ratio: 0.986 ± 0.024 for the first, 0.9676 ± 0.0092 for the second.

Compared with CTGTTCTAGT, CTGTTGAAAA is higher in switch fluorescence ratio: 0.963 ± 0.045 for the first, 1.07 ± 0.022 for the second.

CTGTTGAATT and CTGTTGGTGG are within error of each other in switch fluorescence ratio: 1.01 ± 0.046 for the first, 0.99 ± 0.017 for the second.

CTGTTGTGGG and CTGTTTAAGT are within error of each other in switch fluorescence ratio: 0.989 ± 0.039 for the first, 1.005 ± 0.0073 for the second.

CTGTTTCCGA and CTGTTTTTAT are within error of each other in switch fluorescence ratio: 1.03 ± 0.052 for the first, 1.01 ± 0.034 for the second.

Compared with CTTAAAACGT, CTTAAATGGG is lower in switch fluorescence ratio: 1.056 ± 0.0033 for the first, 0.955 ± 0.019 for the second.

CTTAAATTCT and CTTACAGCTT are within error of each other in switch fluorescence ratio: 1.01 ± 0.011 for the first, 1.04 ± 0.023 for the second.

CTTACAGTTT and CTTACGGTCG are within error of each other in switch fluorescence ratio: 1 ± 0.011 for the first, 1.02 ± 0.038 for the second.

CTTAGACGTC and CTTAGAGTTG are within error of each other in switch fluorescence ratio: 0.948 ± 0.043 for the first, 0.983 ± 0.016 for the second.

CTTAGCGGCC and CTTAGCTATT are within error of each other in switch fluorescence ratio: 1.007 ± 0.0038 for the first, 1.019 ± 0.0077 for the second.

CTTAGGCGGG and CTTAGGGAGC are within error of each other in switch fluorescence ratio: 1 ± 0.059 for the first, 0.969 ± 0.085 for the second.

CTTAGGGGCG and CTTAGGGTTT are within error of each other in switch fluorescence ratio: 0.976 ± 0.024 for the first, 0.988 ± 0.019 for the second.

CTTAGTAGT and CTTAGTATAG are within error of each other in switch fluorescence ratio: 0.973 ± 0.024 for the first, 0.998 ± 0.032 for the second.

CTTAGTGCGG and CTTAGTTGGT are within error of each other in switch fluorescence ratio: 0.978 ± 0.0012 for the first, 0.965 ± 0.012 for the second.

CTTATAGTGC and CTTATATATG are within error of each other in switch fluorescence ratio: 0.974 ± 0.0023 for the first, 0.987 ± 0.017 for the second.

CTTATATTTT and CTTATCAATT are within error of each other in switch fluorescence ratio: 0.997 ± 0.066 for the first, 1 ± 0.018 for the second.

First: CTTATCGAAG
Second: CTTATCGGGG
The switch fluorescence ratio of the first is lower: 0.968 ± 0.015 for the first, 1 ± 0.013 for the second.

CTTATGATAG and CTTATGTATT are within error of each other in switch fluorescence ratio: 0.97 ± 0.013 for the first, 0.993 ± 0.019 for the second.

CTTATTCGTC and CTTCAGGTTG are within error of each other in switch fluorescence ratio: 1.04 ± 0.025 for the first, 1.016 ± 0.0024 for the second.

CTTCCTGCCA and CTTCCTTTTT are within error of each other in switch fluorescence ratio: 2.69 ± 0.36 for the first, 3.13 ± 3 for the second.

Compared with CTTCGCACGG, CTTCGTACAG is lower in switch fluorescence ratio: 3.54 ± 0.37 for the first, 1.02 ± 0.014 for the second.

CTTCGTCTCG and CTTCGTGGCC are within error of each other in switch fluorescence ratio: 1.08 ± 0.072 for the first, 1.04 ± 0.036 for the second.

CTTCTAGGCA and CTTCTATAAC are within error of each other in switch fluorescence ratio: 1.04 ± 0.032 for the first, 1.07 ± 0.02 for the second.

CTTCTGGGGC and CTTGAAAAGC are within error of each other in switch fluorescence ratio: 1.04 ± 0.055 for the first, 1.05 ± 0.021 for the second.

For CTTGAAAAGG, the switch fluorescence ratio was 0.9995 ± 0.0038.
